The source of these data is paper PMC6200642.

What is called Kd is the free concentration of one partner at which half of the binding sites on the other are occupied at equilibrium, for simple one-to-one binding.

The target in this assay is recombinant UspA2 (ubiquitous surface protein A2), cloned from M. catarrhalis strain RH4 (Moraxella catarrhalis strain RH4). The assay is described as follows: ELISA. Background: In an ELISA, binding on a coated surface is turned into a signal by an enzyme label.

With “decorin (from UniProt P07585 31-359) (natural protein)”, the Kd worked out at 293 nM.

B1: biglycan (natural protein)
chain: DEEASGADTSGVLDPDSVTPTYSAMCPFGCHCHLRVVQCSDLGLKSVPKEISPDTTLLDLQNNDISELRKDDFKGLQHLYALVLVNNKISKIHEKAFSPLRKLQKLYISKNHLVEIPPNLPSSLVELRIHDNRIRKVPKGVFSGLRNMNCIEMGGNPLENSGFEPGAFDGLKLNYLRISEAKLTGIPKDLPETLNELHLDHNKIQAIELEDLLRYSKLYRLGLGHNQIRMIENGSLSFLPTLRELHLDNNKLARVPSGLPDLKLLQVVYLHSNNITKVGVNDFCPMGFGVKRAYYNGISLFNNPVPYWEVQPATFRCVTDRLAIQFGNYKK
modifications: biotinylated (EZ-Link Sulfo-NHS-LC-Biotinylation kit); glycosylated
For B1, the Kd came to 89 nM.

B2: fibromodulin (natural protein)
chain: QYEDDPHWWFHYLRSQQSTYYDPYDPYPYETYEPYPYGVDEGPAYTYGSPSPPDPRDCPQECDCPPNFPTAMYCDNRNLKYLPFVPSRMKYVYFQNNQITSIQEGVFDNATGLLWIALHGNQITSDKVGRKVFSKLRHLERLYLDHNNLTRMPGPLPRSLRELHLDHNQISRVPNNALEGLENLTALYLQHNEIQEVGSSMRGLRSLILLDLSYNHLRKVPDGLPSALEQLYMEHNNVYTVPDSYFRGAPKLLYVRLSHNSLTNNGLASNTFNSSSLLELDLSYNQLQKIPPVNTNLENLYLQGNRINEFSISSFCTVVDVVNFSKLQVLRLDGNEIKRSAMPADAPLCLRLASLIEI
modifications: biotinylated (EZ-Link Sulfo-NHS-LC-Biotinylation kit); glycosylated
As for B2, the Kd amounted to 202 nM.

B3: osteoadherin (natural protein)
chain: QYETYQWDEDYDQEPDDDYQTGFPFRQNVDYGVPFHQYTLGCVSECFCPTNFPSSMYCDNRKLKTIPNIPMHIQQLYLQFNEIEAVTANSFINATHLKEINLSHNKIKSQKIDYGVFAKLPNLLQLHLEHNNLEEFPFPLPKSLERLLLGYNEISKLQTNAMDGLVNLTMLDLCYNYLHDSLLKDKIFAKMEKLMQLNLCSNRLESMPPGLPSSLMYLSLENNSISSIPEKYFDKLPKLHTLRMSHNKLQDIPYNIFNLPNIVELSVGHNKLKQAFYIPRNLEHLYLQNNEIEKMNLTVMCPSIDPLHYHHLTYIRVDQNKLKEPISSYIFFCFPHIHTIYYGEQRSTNGQTIQLKTQVFRRFPDDDDESEDHDDPDNAHESPEQEGAEGHFDLHYYENQE
modifications: biotinylated (EZ-Link Sulfo-NHS-LC-Biotinylation kit); glycosylated
With B3, the Kd was 231 nM.
